{"source": "patent US20240082434A1", "molecular_target": "CA1.CD2 PEGylated with P40 (rat)", "experiment": "Western blot; PEGylated (P40) against unmodified CA1.CD2"}
{"substance": "antibody OX34", "values": [{"measurement": "decrease of binding against unPEGylated CA1.CD2", "value": 50, "unit": "%"}]}
